Measurements reported in patent US20240309103A1 (Regeneron, published 2024).

Columns and labels:
[1] = target: T1, hNPR1-mFc:hANP or hNPR1-hFc:hANP complex (human, UniProt P01160 124-151); assay: SPR, mAb captured, 25C
T1 construct: also called human NPR1 complexed to ANP
Procedure: (§1) Equilibrium dissociation constant (KD) for different NPR1 reagents binding to purified anti-NPR1 monoclonal antibodies (mAbs) were determined using a real-time surface plasmon resonance based Biacore 4000 biosensor. All binding studies were performed in 10 mM HEPES, 150 mM NaCl, 3 mM EDTA, and 0.05% v/v Surfactant Tween-20, pH 7.4 (HBS-ET) running buffer at 25° C. and 37° C. The Biacore CM5 sensor chip surface was first derivatized by amine coupling with either mouse anti-human Fc specific mAb (GE Healthcare, #BR100839) or goat anti-human Fcy specific polyclonal antibody (Jackson ImmunoResearch Laboratories, #BR-1008-39) to capture anti-NPR1 mAbs.

hNPR1-mFc:hBNP complex [2] = target: T2, hNPR1-mFc:hBNP complex (human, UniProt P16860 103-134); assay: SPR, mAb captured, 25C
T2 construct: also called human NPR1 complexed to BNP
Procedure: as §1

mfNPR1-mFc [3] = target: T3, mfNPR1-mFc (monkey); assay: SPR, mAb captured, 25C
T3 construct: also called dimeric monkey NPR1
T3 chain: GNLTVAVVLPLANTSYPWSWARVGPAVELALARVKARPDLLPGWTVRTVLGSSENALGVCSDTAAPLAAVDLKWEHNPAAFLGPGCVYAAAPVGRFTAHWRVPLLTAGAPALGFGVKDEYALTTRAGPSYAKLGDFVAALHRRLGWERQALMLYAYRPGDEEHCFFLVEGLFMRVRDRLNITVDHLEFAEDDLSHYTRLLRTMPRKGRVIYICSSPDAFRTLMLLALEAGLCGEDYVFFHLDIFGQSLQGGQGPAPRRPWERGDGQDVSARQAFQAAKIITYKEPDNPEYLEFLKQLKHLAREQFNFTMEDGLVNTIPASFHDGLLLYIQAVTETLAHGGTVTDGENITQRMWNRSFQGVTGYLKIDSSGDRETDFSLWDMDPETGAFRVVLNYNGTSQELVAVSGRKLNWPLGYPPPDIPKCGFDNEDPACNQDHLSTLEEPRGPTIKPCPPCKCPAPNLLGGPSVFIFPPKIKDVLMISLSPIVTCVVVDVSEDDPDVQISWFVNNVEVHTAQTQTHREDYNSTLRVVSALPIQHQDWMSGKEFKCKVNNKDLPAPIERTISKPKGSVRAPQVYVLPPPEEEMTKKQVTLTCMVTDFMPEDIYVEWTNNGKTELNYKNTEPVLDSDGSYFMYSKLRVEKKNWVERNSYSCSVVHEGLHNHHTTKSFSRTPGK
Procedure: as §1

mfNPR1-mFc:hANP complex [4] = target: T4, mfNPR1-mFc:hANP complex (monkey; human, UniProt P01160 124-151); assay: SPR, mAb captured, 25C
T4 construct: also called monkey NPR1 complexed to ANP
Procedure: as §1

mfNPR1-mFc:hBNP complex = target: T5, mfNPR1-mFc:hBNP complex (monkey; human, UniProt P16860 103-134); assay: SPR, mAb captured, 25C
T5 construct: also called monkey NPR1 complexed to BNP
Procedure: as §1

[5] = target: T1, hNPR1-mFc:hANP or hNPR1-hFc:hANP complex; assay: SPR, mAb captured, 37C
Procedure: as §1

hNPR1-mFc:hBNP complex [6] = target: T2, hNPR1-mFc:hBNP complex; assay: SPR, mAb captured, 37C
Procedure: as §1

mfNPR1-mFc [7] = target: T3, mfNPR1-mFc; assay: SPR, mAb captured, 37C
Procedure: as §1

mfNPR1-mFc:hANP complex [8] = target: T4, mfNPR1-mFc:hANP complex; assay: SPR, mAb captured, 37C
Procedure: as §1

B1: mAb25497 (antibody, human IgG4, V domains shown)
VH: QVQLVQSGAEVKEPGASVKVSCKASGYTFTDYYIHWVRQAPGQGLEWMGWINLNSGGKNHAQKFQGRVTVTSDTSINTAYIELGRLRGDDTAVYYCSRGGGSHYYYYYHGMDVWGQGTTVTVSS
VL: DIQMTQSPSSLSASVGDRITITCRASHSIDSYLNWYQQKPGKAPKLLIYPASTLQSGVPSRFSGSGSGTDFTLTISSLQPEDSAIYYCQQSYSTPLTFGGGTKVEIK
- 100 nM Ag Bound (RU) [1]: 59 RU
- Kd [1]: 0.279 nM
- koff [1]: 4.56e-05 s⁻¹
- kon [1]: 163000 M⁻¹ s⁻¹
- t½ [1]: 4.22 h
- 100 nM Ag Bound (RU) (hNPR1-mFc:hBNP complex [2]): 59 RU
- Kd (hNPR1-mFc:hBNP complex [2]): 0.358 nM
- koff (hNPR1-mFc:hBNP complex [2]): 5.49e-05 s⁻¹
- kon (hNPR1-mFc:hBNP complex [2]): 153000 M⁻¹ s⁻¹
- t½ (hNPR1-mFc:hBNP complex [2]): 3.51 h
- 100 nM Ag Bound (RU) (mfNPR1-mFc [3]): 76 RU
- Kd (mfNPR1-mFc [3]): 0.337 nM
- koff (mfNPR1-mFc [3]): 5.79e-05 s⁻¹
- kon (mfNPR1-mFc [3]): 172000 M⁻¹ s⁻¹
- t½ (mfNPR1-mFc [3]): 3.32 h
- 100 nM Ag Bound (RU) (mfNPR1-mFc:hANP complex [4]): 95 RU
- Kd (mfNPR1-mFc:hANP complex [4]): 0.24 nM
- koff (mfNPR1-mFc:hANP complex [4]): 3.75e-05 s⁻¹
- kon (mfNPR1-mFc:hANP complex [4]): 156000 M⁻¹ s⁻¹
- t½ (mfNPR1-mFc:hANP complex [4]): 5.13 h
- 100 nM Ag Bound (RU) (mfNPR1-mFc:hBNP complex): 93 RU
- Kd (mfNPR1-mFc:hBNP complex): 0.32 nM
- koff (mfNPR1-mFc:hBNP complex): 4.47e-05 s⁻¹
- kon (mfNPR1-mFc:hBNP complex): 140000 M⁻¹ s⁻¹
- t½ (mfNPR1-mFc:hBNP complex): 4.31 h
- 100 nM Ag Bound (RU) [5]: 60 RU
- Kd [5]: 2.09 nM
- koff [5]: 0.000102 s⁻¹
- kon [5]: 48500 M⁻¹ s⁻¹
- t½ [5]: 1.9 h
- 100 nM Ag Bound (RU) (hNPR1-mFc:hBNP complex [6]): 59 RU
- Kd (hNPR1-mFc:hBNP complex [6]): 2.35 nM
- koff (hNPR1-mFc:hBNP complex [6]): 0.000116 s⁻¹
- kon (hNPR1-mFc:hBNP complex [6]): 49200 M⁻¹ s⁻¹
- t½ (hNPR1-mFc:hBNP complex [6]): 1.66 h
- 100 nM Ag Bound (RU) (mfNPR1-mFc [7]): 79 RU
- Kd (mfNPR1-mFc [7]): 5.2 nM
- koff (mfNPR1-mFc [7]): 0.000221 s⁻¹
- kon (mfNPR1-mFc [7]): 42500 M⁻¹ s⁻¹
- t½ (mfNPR1-mFc [7]): 0.872 h
- 100 nM Ag Bound (RU) (mfNPR1-mFc:hANP complex [8]): 102 RU
- Kd (mfNPR1-mFc:hANP complex [8]): 2.6 nM
- koff (mfNPR1-mFc:hANP complex [8]): 0.000152 s⁻¹
- kon (mfNPR1-mFc:hANP complex [8]): 58400 M⁻¹ s⁻¹
- t½ (mfNPR1-mFc:hANP complex [8]): 1.27 h

B2: mAb25498 (antibody, human IgG4, V domains shown)
VH: QVQLVESGGGVVQPGRSLRLSCVASGFTFSSYGMVWVRQTPGKGLEWVAVIWHDGTNNYYADSVKGRFTISRDNSKNTLYLQMNSLRAEDTAVYYCAREPWLVRGYYYYAMDVWGQGTTVTVSS
VL: not shown
- 100 nM Ag Bound (RU) [1]: 52 RU
- Kd [1]: 6.93 nM
- koff [1]: 0.000317 s⁻¹
- kon [1]: 45800 M⁻¹ s⁻¹
- t½ [1]: 0.607 h
- 100 nM Ag Bound (RU) (hNPR1-mFc:hBNP complex [2]): 55 RU
- Kd (hNPR1-mFc:hBNP complex [2]): 5.28 nM
- koff (hNPR1-mFc:hBNP complex [2]): 0.000256 s⁻¹
- kon (hNPR1-mFc:hBNP complex [2]): 48500 M⁻¹ s⁻¹
- t½ (hNPR1-mFc:hBNP complex [2]): 0.752 h
- 100 nM Ag Bound (RU) (mfNPR1-mFc [3]): 128 RU
- Kd (mfNPR1-mFc [3]): 2.45 nM
- koff (mfNPR1-mFc [3]): 0.000177 s⁻¹
- kon (mfNPR1-mFc [3]): 72000 M⁻¹ s⁻¹
- t½ (mfNPR1-mFc [3]): 1.09 h
- 100 nM Ag Bound (RU) (mfNPR1-mFc:hANP complex [4]): 81 RU
- Kd (mfNPR1-mFc:hANP complex [4]): 2.68 nM
- koff (mfNPR1-mFc:hANP complex [4]): 0.000112 s⁻¹
- kon (mfNPR1-mFc:hANP complex [4]): 41900 M⁻¹ s⁻¹
- t½ (mfNPR1-mFc:hANP complex [4]): 1.72 h
- 100 nM Ag Bound (RU) (mfNPR1-mFc:hBNP complex): 81 RU
- Kd (mfNPR1-mFc:hBNP complex): 2.53 nM
- koff (mfNPR1-mFc:hBNP complex): 0.000109 s⁻¹
- kon (mfNPR1-mFc:hBNP complex): 43200 M⁻¹ s⁻¹
- t½ (mfNPR1-mFc:hBNP complex): 1.77 h
- 100 nM Ag Bound (RU) [5]: 74 RU
- Kd [5]: 13.6 nM
- koff [5]: 0.00072 s⁻¹
- kon [5]: 53000 M⁻¹ s⁻¹
- t½ [5]: 0.267 h
- 100 nM Ag Bound (RU) (hNPR1-mFc:hBNP complex [6]): 76 RU
- Kd (hNPR1-mFc:hBNP complex [6]): 17.9 nM
- koff (hNPR1-mFc:hBNP complex [6]): 0.000948 s⁻¹
- kon (hNPR1-mFc:hBNP complex [6]): 52900 M⁻¹ s⁻¹
- t½ (hNPR1-mFc:hBNP complex [6]): 0.203 h
- 100 nM Ag Bound (RU) (mfNPR1-mFc [7]): 170 RU
- Kd (mfNPR1-mFc [7]): 4.06 nM
- koff (mfNPR1-mFc [7]): 0.000372 s⁻¹
- kon (mfNPR1-mFc [7]): 91600 M⁻¹ s⁻¹
- t½ (mfNPR1-mFc [7]): 0.518 h
- 100 nM Ag Bound (RU) (mfNPR1-mFc:hANP complex [8]): 114 RU
- Kd (mfNPR1-mFc:hANP complex [8]): 8.89 nM
- koff (mfNPR1-mFc:hANP complex [8]): 0.000445 s⁻¹
- kon (mfNPR1-mFc:hANP complex [8]): 50100 M⁻¹ s⁻¹
- t½ (mfNPR1-mFc:hANP complex [8]): 0.432 h
